Measurements reported in publication PMC4769559 (BMC Veterinary Research, 2016).

B1: 6 × His-SUMO-VHH6 fusion protein (VHH)
VHH: QVQLVESGGGSVQAGGSLRLSCTASGFTFDDSDMVWYRQAPGNECEVVSYITSDGTTYHADSVKGRFTISQDNAKSTVYLQMNSLKPEDTAVYYCAADLVLESPSCEWSQGTLVTVSS
B2: VHH7 fused to the Gal4 activation domain (pAD-VHH, pGADT7-Rec) (VHH)
VHH: QVQLVESGGGLVQPGGSLRLSCAASGFAFSIYAMSWVRQAPGKGLEWVSAINSGGGSEYYADSVKGRFTISRDNAKNTLYLQLNSLKTEDTAMYYCAKSTSDCSYSDPWCYALADFGYWGQGTQVTVSS
B3: VHH5 fused to the Gal4 activation domain (pAD-VHH, pGADT7-Rec) (VHH)
VHH: QVQLVESGGGLVQPGGSLKLSCAASGFTFSTNAMSWFRPAPGKERKWVSAIDAGGGNTYYDDSMKGRFTISKDNAKNTLYLQLNSLKSEDTAMYYCAKDPATVPTNRGQGTLVTVSS
B4: VHH1 fused to the Gal4 activation domain (pAD-VHH, pGADT7-Rec) (VHH)
VHH: QVQLVESGGGSVQAGGSLTLSCAASGATDSSSCMGWFRQAPGKEREGVANIDSDGNTNYAESVMGRFTISQDNAKNTLYLQMNTLKPEDTAMYRCAADPGGSWCVFLLARENALDAWGQGTLVTVSS
B5: VHH4 fused to the Gal4 activation domain (pAD-VHH, pGADT7-Rec) (VHH)
VHH: QVQLVESGGGSVQAGGPLRLSCAVSGYSYSSVCMAWFRQAPGKEREAVAGIYTGGGNKYYADSVKGRFTISQDNTKNTLYLQMNSLKPEDTAMYYCAADLTVAACVPGRPQLTEEYNIWGQGTLVTVSS
B6: VHH6 fused to the Gal4 activation domain (pAD-VHH, pGADT7-Rec) (VHH)
VHH: QVQLVESGGGSVQAGGSLRLSCTASGFTFDDSDMVWYRQAPGNECEVVSYITSDGTTYHADSVKGRFTISQDNAKSTVYLQMNSLKPEDTAVYYCAADLVLESPSCEWSQGTLVTVSS
B7: VHH2 fused to the Gal4 activation domain (pAD-VHH, pGADT7-Rec) (VHH)
VHH: QVQLVESGGGSVQAGGSLKLSCAPPAGYIFSSCAMGWYRQAPGKEHELVSSIAINGTTVYADFVKGRFTIFQDNTKPTLYLQMNNLKTEDTAVYYCAAECTFSDHPYWGQGTLVTVSS
B8: VHH3 fused to the Gal4 activation domain (pAD-VHH, pGADT7-Rec) (VHH)
VHH: EVQLVESGGGSVQAGGSLRLSCTASGYTRCMGWFRQAPGKEREGVAIVVTGSPYYTDSVKDRFTISLDNAKNTVYLQMNSLKPEDTATYYCAADRSILGCRLFRLYEANYRGQGTLVTVSS

Each binder was assayed against cell derived HN protein (pCAGGS-HN transfected 293 T cells) (Newcastle disease virus, strain not …, UniProt O90340) (assay: pull-down). Conditions: one partner purified.
B1: binds.

What follows are binders tested against truncate haemagglutinin-neuraminidase (HN) 49–577 aa of NDV La Sota fused to the yeast GAL4 DNA-BD (Newcastle disease virus, La Sota, UniProt O90340, strain) (assay: two-hybrid). Conditions: partners not purified.
B2: binds.
B3: binds.
B4: binds.
B5: binds.
B6: binds.
B7: binds.
B8: binds.

What follows are binders tested against NDV HN glycoprotein in LaSota-infected DF-1 cells (Newcastle disease virus, La Sota, UniProt O90340, strain) (assay: immunostaining of cells or tissue). Conditions: one partner purified.
B1: binds.
